These are literature values, as cited in publication PMC3587688.

The target of the series is ephrin-B2 (Homo sapiens) (UniProt P52799).
ephrin-B2 (Homo sapiens), sequence (P52799 28-333): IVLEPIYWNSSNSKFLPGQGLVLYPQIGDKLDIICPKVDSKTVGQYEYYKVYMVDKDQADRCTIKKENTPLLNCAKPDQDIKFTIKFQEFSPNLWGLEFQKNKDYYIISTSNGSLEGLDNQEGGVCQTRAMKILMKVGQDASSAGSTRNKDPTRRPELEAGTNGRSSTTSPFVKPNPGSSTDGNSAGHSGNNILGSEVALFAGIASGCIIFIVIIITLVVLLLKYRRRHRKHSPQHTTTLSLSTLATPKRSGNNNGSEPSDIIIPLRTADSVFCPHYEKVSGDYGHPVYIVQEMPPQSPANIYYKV

HeV-G, sequence (O89343 whole entry): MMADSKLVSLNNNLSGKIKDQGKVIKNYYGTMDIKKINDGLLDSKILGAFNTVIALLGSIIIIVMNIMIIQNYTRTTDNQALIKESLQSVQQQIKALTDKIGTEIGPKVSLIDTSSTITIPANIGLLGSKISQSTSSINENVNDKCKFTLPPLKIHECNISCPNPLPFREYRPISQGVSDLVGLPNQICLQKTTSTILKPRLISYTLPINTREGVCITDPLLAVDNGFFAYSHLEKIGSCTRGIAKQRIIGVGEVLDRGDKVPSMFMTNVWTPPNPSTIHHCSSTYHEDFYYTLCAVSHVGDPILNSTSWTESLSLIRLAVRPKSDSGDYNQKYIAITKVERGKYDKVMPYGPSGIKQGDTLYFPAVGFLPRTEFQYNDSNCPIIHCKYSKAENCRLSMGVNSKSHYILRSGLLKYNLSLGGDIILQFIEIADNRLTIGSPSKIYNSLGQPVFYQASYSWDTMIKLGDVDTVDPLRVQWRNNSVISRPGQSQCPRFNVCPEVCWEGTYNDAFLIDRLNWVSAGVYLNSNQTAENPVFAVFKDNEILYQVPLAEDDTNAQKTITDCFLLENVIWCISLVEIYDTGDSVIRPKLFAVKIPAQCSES

Turning to HeV-G (from UniProt O89343), the Kd (in general, the concentration at which binding is half-saturated) was 0.57 nM.
